Results as given in paper PMC3226724.

Biological target: T1, PriB (Escherichia coli, UniProt P07013 1-104)
T1 sequence: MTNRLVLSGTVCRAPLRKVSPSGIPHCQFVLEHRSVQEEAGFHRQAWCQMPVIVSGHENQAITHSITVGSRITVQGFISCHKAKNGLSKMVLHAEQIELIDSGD
Assay: sedimentation equilibrium

Binder: TTTTTTTTTTTTTTTTTTTTTTTTTT (ssDNA) [5'Fl-dT(pT)25 (called 27-mer)]
- binding result: binds
